The record followed here is US20260209384A1 (Stanford University, published 2026).

Assay [1] has as its target T1, recombinant human GPC2 (R&D Systems) (human, UniProt Q8N158 24-554, limits assumed, labelled with Dylight488 or Dylight650 in the flow cytometry assays; unlabelled in the ELISA).
T1 construct: extracellular domain; also called hGPC2; human Glypican-2
T1 sequence (looked up): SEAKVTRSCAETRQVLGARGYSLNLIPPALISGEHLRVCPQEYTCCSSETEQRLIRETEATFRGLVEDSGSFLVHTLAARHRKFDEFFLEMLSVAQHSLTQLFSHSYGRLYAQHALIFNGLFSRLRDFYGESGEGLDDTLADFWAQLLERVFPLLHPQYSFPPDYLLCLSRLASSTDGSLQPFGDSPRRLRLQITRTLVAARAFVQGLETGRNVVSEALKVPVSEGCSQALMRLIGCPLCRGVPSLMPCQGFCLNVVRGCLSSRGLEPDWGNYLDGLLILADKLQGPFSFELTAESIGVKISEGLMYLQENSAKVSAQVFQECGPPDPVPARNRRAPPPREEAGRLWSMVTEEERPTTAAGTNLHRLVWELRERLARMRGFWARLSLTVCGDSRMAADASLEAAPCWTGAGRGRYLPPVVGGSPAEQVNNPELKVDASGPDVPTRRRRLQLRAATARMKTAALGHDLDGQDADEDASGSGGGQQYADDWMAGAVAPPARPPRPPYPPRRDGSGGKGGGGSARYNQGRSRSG
Kind of assay: flow cytometry, CAR T cells stained with fluorescently labelled recombinant GPC2. From the text: Primary human T cells were isolated from healthy donors using the RosetteSep Human T cell Enrichment kit (Stem Cell Technologies) using buffy coats were derived from the Stanford Blood Center and processed according to the manufacturer's protocol using Lymphoprep density gradient medium and SepMate-50 tubes. Isolated T cells were cryopreserved in CryoStor CS10 cryopreservation medium (Stem Cell Technologies). Cryopreserved T cells were thawed and activated with Human T-Expander CD3/CD28 Dynabeads (Gibco) at a 3:1 beads: cell ratio in AIM-V media supplemented with 5% FBS, 10 mM HEPES, 2 mM 1-glutamine, 100 U/mL penicillin, and 100 μg/mL streptomycin (Gibco) and with 100 IU/ml of recombinant IL-2 (Preprotech). T cells were transduced with retroviral vector on days 2 and 3 post activation and anti-CD3/CD28 beads were removed on day 5. CAR T-cells were maintained at 0.3-1×10⁶ cells per mL in T cell medium with IL2. CAR expression was assessed by Flow Cytometry after incubation with soluble, recombinant, human GPC2 (R&D systems) labelled with Dylight488 or Dylight650. CAR T cells were used for in vitro assays or transferred into mice on day 10 post activation.
Data was collected with an LSR Fortessa X-20 (BD Bioscience) and analyzed using the FlowJo software. Cells were harvested, washed twice with FACS buffer (PBS supplemented with 2% FBS and 0.4% 0.5 M EDTA) and stained for 30 min in the dark on ice. Cells were washed 3 times with FACS buffer after each incubation step. Cells were gated on viable cells and singlet discrimination (FSC-A/FSC-H) was performed before assessment of antigen expression. Semiquantitative assessment of GPC2 antigen density in molecules per cell was estimated using the BD Quantibrite Kit per the manufacturer's protocol.

Assay [2] has as its target T2, recombinant murine GPC2 (R&D Systems) (mouse, UniProt Q8BKV1 22-556, limits assumed, labelled with Dylight488 in the flow cytometry assay of FIG. 9B; unlabelled in the ELISA).
T2 construct: Bought recombinant protein; also called mGPC2; mouse GPC2
T2 sequence (looked up): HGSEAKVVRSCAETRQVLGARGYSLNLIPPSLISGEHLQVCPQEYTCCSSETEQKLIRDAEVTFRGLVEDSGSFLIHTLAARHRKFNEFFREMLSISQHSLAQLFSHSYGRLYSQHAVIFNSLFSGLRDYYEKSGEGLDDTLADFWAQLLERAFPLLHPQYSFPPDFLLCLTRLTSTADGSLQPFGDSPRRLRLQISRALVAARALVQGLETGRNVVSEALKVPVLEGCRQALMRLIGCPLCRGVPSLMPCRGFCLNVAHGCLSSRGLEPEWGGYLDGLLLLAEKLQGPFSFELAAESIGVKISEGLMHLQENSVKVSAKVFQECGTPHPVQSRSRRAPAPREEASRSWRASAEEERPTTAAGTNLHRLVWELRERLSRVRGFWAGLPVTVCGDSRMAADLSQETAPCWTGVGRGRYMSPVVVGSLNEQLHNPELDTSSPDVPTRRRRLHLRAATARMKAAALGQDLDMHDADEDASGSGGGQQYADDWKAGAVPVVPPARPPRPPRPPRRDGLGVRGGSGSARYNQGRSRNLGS
The assay is described as follows: flow cytometry, CAR T cells stained with Dylight488-labelled murine GPC2. (In general: A flow cytometer gives signals particle by particle.)

The target in assay [3] is T2, recombinant murine GPC2 (R&D Systems). The assay is described as follows: ELISA, antigen coated on plate, anti-human Fc-HRP detection. The procedure: (§1) Fully human GPC2.19-IgG1 antibody was transiently expressed in 293 FreeStyle cells. Antibody was isolated from culture supernatant using protein A beads (Fisher). Isolated antibody was washed using PBS and Amicon […] filter columns. Binding of GPC2.19-IgG1 to GPC2 antigen was measured via ELISA. Recombinant human and mouse GPC2 antigens were purchased from R&D Systems, dry milk was from BioRad. All other chemicals were biological grade. High absorbance 96-well ELISA plates were coated with antigen overnight using […] stock solution per well at 2 μg/ml. Experiments were performed at 4° C. Antigen coated plates were blocked using 3% milk in PBS and 0.5% TWEEN® 20 for 2 h. Blocked plates were incubated with one of the tested primary antibodies for 1 hour, washed 5 times (BioTek plate washer) and incubated with anti-human Fc-HRP (Sigma) as the secondary antibody for 1 hour. Secondary antibody was washed five times, the HRP substrate TMB (Sigma) was added and plate was incubated for 3 minutes. TMB oxidation was stopped with 2.5 M sulfuric acid. Plates' absorbance was measured on plate reader (BioRad) at 415 nm.
(In general: ELISA stands for enzyme-linked immunosorbent assay.)

For assay [4], the target named is T1, recombinant human GPC2 (R&D Systems). The assay is described as above. The procedure:
as §1

B1: GPC2.27 CAR in VH-L-VL orientation with CD8a hinge-transmembrane domain and 41BBz signaling domain (other)
chain: EVQLVESGPGLVKPSETLSLTCAVSGYSISSGYYWGWIRQPPGKGLEWIGSIYHSGSTYYNPSLKSRVTISVDTSKNQFSLKLSSVTAADTAVYYCASLPSRGGFDYWGQGTLVTVSSGGGGSGGGASGGGGSEIVMTQSPATLSASVGDRVTIACRASQTISRYLNWYQQKPGKAPKLLIYAASSLQSGVSSRFSGSGSGTEFTLTISSLQPEDFATYFCQQTYSPPITFGQGTRLEIKRATTTPAPRPPTPAPTIASQPLSLRPEACRPAAGGAVHTRGLDFACDIYIWAPLAGTCGVLLLSLVITLYCKRGRKKLLYIFKQPFMRPVQTTQEEDGCSCRFPEEEEGGCELRVKFSRSADAPAYKQGQNQLYNELNLGRREEYDVLDKRRGRDPEMGGKPRRKNPQEGLYNELQKDKMAEAYSEIGMKGERRRGKGHDGLYQGLSTATKDTYDALHMQALPPR
notes: also called GPC2.27 VH-L-VL CAR
On to B1, for which the binding result in assay [1] is reported as “binds”.

B2: GPC2.27 CAR in VL-L-VH orientation with CD8a hinge-transmembrane domain and 41BBz signaling domain (other)
chain: EIVMTQSPATLSASVGDRVTIACRASQTISRYLNWYQQKPGKAPKLLIYAASSLQSGVSSRFSGSGSGTEFTLTISSLQPEDFATYFCQQTYSPPITFGQGTRLEIKRGGGGSGGGASGGGGSEVQLVESGPGLVKPSETLSLTCAVSGYSISSGYYWGWIRQPPGKGLEWIGSIYHSGSTYYNPSLKSRVTISVDTSKNQFSLKLSSVTAADTAVYYCASLPSRGGFDYWGQGTLVTVSSATTTPAPRPPTPAPTIASQPLSLRPEACRPAAGGAVHTRGLDFACDIYIWAPLAGTCGVLLLSLVITLYCKRGRKKLLYIFKQPFMRPVQTTQEEDGCSCRFPEEEEGGCELRVKFSRSADAPAYKQGQNQLYNELNLGRREEYDVLDKRRGRDPEMGGKPRRKNPQEGLYNELQKDKMAEAYSEIGMKGERRRGKGHDGLYQGLSTATKDTYDALHMQALPPR
notes: also called GPC2.27 VL-L-VH CAR
Regarding B2, the binding result in assay [1] is “binds”.

B3: GPC2.19VLVH.28H-28TM.41BBz (other)
chain: DIQMTQSPSSLSASIGDRVTITCQASQDISDYLNWYQQKPGKAPKLLIYDASNLETGVPSRFSGSGSGTDFTFTISSLQPEDVATYYCQQYDNLPITFGQGTKLEIKRGGGGSGGGASGGGGSQLQLQESGPGLVKPSETLSLTCTVSGGSISSSSYYWSWIRQPPGKGLEWIGSIYYSGSTYYNPSLKSRVTISVDTSKNQFSLKLSSVTAADTAVYYCARRVSGHPFDPWGQGTLVTVSSAAAIEVMYPPPYLDNEKSNGTIIHVKGKHLCPSPLFPGPSKPFWVLVVVGGVLACYSLLVTVAFIIFWVKRGRKKLLYIFKQPFMRPVQTTQEEDGCSCRFPEEEEGGCELRVKFSRSADAPAYKQGQNQLYNELNLGRREEYDVLDKRRGRDPEMGGKPRRKNPQEGLYNELQKDKMAEAYSEIGMKGERRRGKGHDGLYQGLSTATKDTYDALHMQALPPR
notes: also called GPC2.19 CAR with CD28 hinge-transmembrane domains and 41BB costimulatory domain
Turning to B3, the binding result in assay [1] was “binds”.

B4: GPC2.19VLVH.8aH-8aTM.41BBz (other)
chain: DIQMTQSPSSLSASIGDRVTITCQASQDISDYLNWYQQKPGKAPKLLIYDASNLETGVPSRFSGSGSGTDFTFTISSLQPEDVATYYCQQYDNLPITFGQGTKLEIKRGGGGSGGGASGGGGSQLQLQESGPGLVKPSETLSLTCTVSGGSISSSSYYWSWIRQPPGKGLEWIGSIYYSGSTYYNPSLKSRVTISVDTSKNQFSLKLSSVTAADTAVYYCARRVSGHPFDPWGQGTLVTVSSATTTPAPRPPTPAPTIASQPLSLRPEACRPAAGGAVHTRGLDFACDIYIWAPLAGTCGVLLLSLVITLYCKRGRKKLLYIFKQPFMRPVQTTQEEDGCSCRFPEEEEGGCELRVKFSRSADAPAYKQGQNQLYNELNLGRREEYDVLDKRRGRDPEMGGKPRRKNPQEGLYNELQKDKMAEAYSEIGMKGERRRGKGHDGLYQGLSTATKDTYDALHMQALPPR
notes: also called GPC2.19 CAR; GPC2.8aTM.41BBz CAR
On to B4, for which the binding result in assay [1] and in assay [2] was “binds” in each case.

B5: GPC2.19-IgG1 (antibody, V domains shown)
VH: QLQLQESGPGLVKPSETLSLTCTVSGGSISSSSYYWSWIRQPPGKGLEWIGSIYYSGSTYYNPSLKSRVTISVDTSKNQFSLKLSSVTAADTAVYYCARRVSGHPFDPWGQGTLVTVSS
VL: DIQMTQSPSSLSASIGDRVTITCQASQDISDYLNWYQQKPGKAPKLLIYDASNLETGVPSRFSGSGSGTDFTFTISSLQPEDVATYYCQQYDNLPITFGQGTKLEIKR
notes: also called GPC2.IgG1; fully human GPC2.19-IgG1 antibody
What is called EC50 is the concentration giving half of the maximal effect. For the molecule B5, the half-maximal effective concentration (EC50) in assay [3] and in assay [4] was about 1 nM each time.

B6: GPC2.19VLVH.28H-28TM.28z (other)
chain: DIQMTQSPSSLSASIGDRVTITCQASQDISDYLNWYQQKPGKAPKLLIYDASNLETGVPSRFSGSGSGTDFTFTISSLQPEDVATYYCQQYDNLPITFGQGTKLEIKRGGGGSGGGASGGGGSQLQLQESGPGLVKPSETLSLTCTVSGGSISSSSYYWSWIRQPPGKGLEWIGSIYYSGSTYYNPSLKSRVTISVDTSKNQFSLKLSSVTAADTAVYYCARRVSGHPFDPWGQGTLVTVSSAAAIEVMYPPPYLDNEKSNGTIIHVKGKHLCPSPLFPGPSKPFWVLVVVGGVLACYSLLVTVAFIIFWVRSKRSRLLHSDYMNMTPRRPGPTRKHYQPYAPPRDFAAYRSRVKFSRSADAPAYQQGQNQLYNELNLGRREEYDVLDKRRGRDPEMGGKPRRKNPQEGLYNELQKDKMAEAYSEIGMKGERRRGKGHDGLYQGLSTATKDTYDALHMQALPPR
notes: also called GPC2.28TM.28z CAR; GPC2.19 CAR with CD28 hinge-transmembrane domains and CD28 costimulatory domain
As for B6, the binding result in assay [1] is “binds”.

B7: GPC2.19 CAR in VH-L-VL orientation with CD8a hinge-transmembrane domain and 41BBz signaling domain (other)
chain: QLQLQESGPGLVKPSETLSLTCTVSGGSISSSSYYWSWIRQPPGKGLEWIGSIYYSGSTYYNPSLKSRVTISVDTSKNQFSLKLSSVTAADTAVYYCARRVSGHPFDPWGQGTLVTVSSGGGGSGGGASGGGGSDIQMTQSPSSLSASIGDRVTITCQASQDISDYLNWYQQKPGKAPKLLIYDASNLETGVPSRFSGSGSGTDFTFTISSLQPEDVATYYCQQYDNLPITFGQGTKLEIKRATTTPAPRPPTPAPTIASQPLSLRPEACRPAAGGAVHTRGLDFACDIYIWAPLAGTCGVLLLSLVITLYCKRGRKKLLYIFKQPFMRPVQTTQEEDGCSCRFPEEEEGGCELRVKFSRSADAPAYKQGQNQLYNELNLGRREEYDVLDKRRGRDPEMGGKPRRKNPQEGLYNELQKDKMAEAYSEIGMKGERRRGKGHDGLYQGLSTATKDTYDALHMQALPPR
notes: also called GPC2.19 VH-L-VL CAR
As for B7, the binding result in assay [1] is reported as “binds”.
